In FireProtDB (doi:10.1021/bi00369a002):
Values joined by “and” are separate entries in the source; they are usually repeats but may differ in a detail not shown here. Identical values can stand only once.

B1: Tryptophan synthase alpha chain, P0A877 (parent)
chain: MERYESLFAQLKERKEGAFVPFVTLGDPGIEQSLKIIDTLIEAGADALELGIPFSDPLADGPTIQNATLRAFAAGVTPAQCFEMLALIRQKHPTIPIGLLMYANLVFNKGIDEFYAQCEKVGVDSVLVADVPVEESAPFRQAALRHNVAPIFICPPNADDDLLRQIASYGRGYTYLLSRAGVTGAENRAALPLNHLVAKLKEYNAAPPLQGFGISAPDQVKAAIDAGAAGAISGSAIVKIIEQHINEPEKMLAALKVFVQPMKAATRS

Variants of: B1
Details: Escherichia coli (strain K12); pH 7.8; 25 °C; Urea; Absorbance; Potassium phosphate 10 mM; transition: 3; structure 1WQ5; whole UniProt chain shown

Row | Variant | ddG of mutation (higher = less stable) | denaturant m value | denaturant midpoint (higher = more stable)
1 | MERYESLFAQLKERKEGAFVPFVTLGDPGIEQSLKIIDTLIEAGADALELGIPFSDPLADGPTIQNATLRAFAAGVTPAQCFEMLALIRQKHPTIPIGLLMYANLVFNKGIDEFYAQCEKVGVDSVLVADVPVEESAPFRQAALRHNVAPIFICPPNADDDLLRQIASYGRGYTCLLSRAGVTGAENRAALPLNHLVAKLKEYNAAPPLQEFGISAPDQVKAAIDAGAAGAISGSAIVKIIEQHINEPEKMLAALKVFVQPMKAATRS [Y175C G211E] | 1.3 kcal/mol and 1 kcal/mol | 3 kcal/mol/M and 1.4 kcal/mol/M | 2.2 M and 3.49 M
2 | MERYESLFAQLKERKEGAFVPFVTLGDPGIEQSLKIIDTLIEAGADALELGIPFSDPLADGPTIQNATLRAFAAGVTPAQCFEMLALIRQKHPTIPIGLLMYANLVFNKGIDEFYAQCEKVGVDSVLVADVPVEESAPFRQAALRHNVAPIFICPPNADDDLLRQIASYGRGYTCLLSRAGVTGAENRAALPLNHLVAKLKEYNAAPPLQGFGISAPDQVKAAIDAGAAGAISGSAIVKIIEQHINEPEKMLAALKVFVQPMKAATRS [Y175C] | – | 3 kcal/mol/M and 1.1 kcal/mol/M | 2.58 M and 3.71 M
3 | MERYESLFAQLKERKEGAFVPFVTLGDPGIEQSLKIIDTLIEAGADALELGIPFSDPLADGPTIQNATLRAFAAGVTPAQCFEMLALIRQKHPTIPIGLLMYANLVFNKGIDEFYAQCEKVGVDSVLVADVPVEESAPFRQAALRHNVAPIFICPPNADDDLLRQIASYGRGYTYLLSRAGVTGAENRAALPLNHLVAKLKEYNAAPPLQEFGISAPDQVKAAIDAGAAGAISGSAIVKIIEQHINEPEKMLAALKVFVQPMKAATRS [G211E] | – | 3 kcal/mol/M and 1.5 kcal/mol/M | 2.73 M and 3.72 M
